This is an account of results in US20250027073A1.

For experiment [1], the target named is NY-ESO-1 TCR, clone 1G4 mutated version (a95:LY) with high affinity, on Jurkat T cells. Kind of experiment: cell-based or functional assay.
Experiment [2] addresses CMV-pp65495-503-TCR, on Jurkat T cells. Kind of experiment: cell-based or functional assay.
Experiment [3] deals with pp65495-503 tetramer-positive primary human T cells (their TCRs).
The target of experiment [4] is CMV-pp65495-503-TCR, on Jurkat T cells.
For experiment [5] the target is unchanged. This is another data set of the same source.
Experiment [6] has the same target. This is another data set of the same source.
Experiment [7] concerns the target pp65495-503 tetramer-positive primary human T cells (their TCRs). This is another data set of the same source.
Experiment [8] concerns the target NY-ESO-1 TCR, clone 1G4 mutated version (a95:LY) with high affinity, on Jurkat T cells.
In experiment [9] the target is Flu-m158-66-TCR, on Jurkat T cells.
The target in experiment [10] is NY-ESO-1 peptide on HLA-A*02:01 (human).
Experiment [11] deals with peptide on HLA-A*02:01 (human).
Experiment [12] deals with peptide on HLA-A*02:01 (human). The source holds these as a separate data set.
Experiment [13] has as its target NY-ESO-1 TCR, clone 1G4 mutated version (a95:LY) with high affinity, on Jurkat T cells. The source holds these as a separate data set.
Experiment [14] shares this target. This is another data set of the same source.
Experiment [15] deals with anti-SAR2-RBD BCR on B cells (RBD antibody of PDB 7BWJ with human IgG1 Fc and PDGFR TM). The experiment can be described thus: flow cytometry; GFP viruses displaying RBD on RBD-BCR+ B cells. On the technique in general: Flow cytometry measures light scatter and fluorescence of single cells or particles in a stream.
The target of experiment [16] is Anti-Her2 BCR on B cells (from Trastuzumab vector, with PDGFR TM). Kind of experiment: flow cytometry; GFP viruses displaying HER2 on HER2-BCR+ B cells.

Several values for one entry are separate records, joined by “and”; a condition that tells them apart may be missing. Equal values may be shown once. Read-outs that look alike come from different tables or passages of the source.

Substance “CMV pp65495-503 (…) presented by HLA-A0201, single-chain trimer of pMHC displayed on the lentiviral surface (from UniProt P61769 21-119) (peptide-MHC)” registered a GFP transgene expression after infection (cargo delivery) in experiment [1] of 0.22%. For the same substance, in experiment [2], the GFP transgene expression after infection (cargo delivery) was found to be 82%; the depletion of on-target T cells after HSV-TK gene delivery and GCV treatment, against GFP gene delivery was determined as 8 fold. In experiment [3], this substance registered a percent of tetramer+ T cells labeled of 99%. For the same substance, in experiment [4], the percent of tetramer positive cells that were GFP+ was above 90%. This substance also showed a percent of T cells GFP+ in experiment [5] above 87%. Also, in [6], the percent of antigen+ cells matched with the corresponding TCR sequence is 99.8%. In experiment [7], this substance had a percent of tetramer-positive T cells labeled of 83% and a percent of tetramer-positive T cells recovered of 98%.
For the substance “HPV16 E782-91 peptide presented by HLA-A2, single-chain trimer of pMHC displayed on the lentiviral s (from UniProt P03129 82-91; P61769 21-119) (peptide-MHC)”, the percent of T cells labeled (GFP+) in experiment [8], in experiment [5] and in experiment [9] was 1% each time.
One may read the Kd as the equilibrium constant for the complex coming apart. The low end stands for a tighter complex, the high end for a looser complex. On to “NY-ESO-1 TCR, clone 1G4, wild-type (1G4 wt)”, for which the Kd is 10.8 µM and 84.9 µM in experiment [10]; 10.8 µM and 84.9 µM in experiment [11]; 10.8 µM and 84.9 µM in [12].
For the substance “NY-ESO-1157-165 (…) presented by HLA-A0201, single-chain trimer of pMHC displayed on the lentiviral surface (from UniProt P61769 21-119) (peptide-MHC)”, the percent of TCR-T cells stained in experiment [13] came out at 95.7%. In experiment [8], the percent of T cells GFP+ is above 87% and the percent of T cells labeled (GFP+) amounted to 88.2%. Also, the percent of antigen+ cells matched with the corresponding TCR sequence in [14] came to 97.4%.
Substance “Receptor Binding Domain (RBD) from SARS-CoV-2 spike protein fused with ICAM1 TM domain, displayed on (from UniProt P0DTC2 319-541)” showed a percent of B cells labeled (GFP+) in experiment [15] of 88%.
In turn, “truncated Her2 (a1-a700) with its native TM domain, displayed on the lentiviral surface (from UniProt P04626 23-700) (receptor)” returned a percent of B cells detected (GFP+) in experiment [16] of 76%.
